Reference: patent US20030055006A1, “Combinations and compositions which interfere with VEGF/VEGF and angiopoietin/tie receptor function and their use” (Schering Aktiengesellschaft, priority 2000, published 2003)

Legend:
[1] = test system: Tumors derived from A375v/pCEP cells; assay: Tumor growth in A375v xenograft, Example 4 (VEGF receptor kinase inhibitor and/or scFv-tTF conjugate); assay type: in vivo, nude mice; settings: kinase inhibitor 50 mg/kg daily oral; scFv-tTF conjugate 20 μg i.v. on day 0 and day 4; untreated control approx. 1000 mm^3
Experimental: (§1) Tumors derived from A375v/pCEP cells were induced in nude mice as described in example 1. Animals receiving compound I were treated for up to 28 days with daily oral doses of 50 mg/kg of the VEGF receptor tyrosine kinase inhibitor (4-Chlorophenyl)[4-(4-pyridylmethyl)-phthalazin-1-yl]ammonium hydrogen succinate (Wood et al., Cancer Res. 60, 2178-2189, 2000). Compound II consists of a single chain antibody (scFv) specifically recognizing the human VEGF-A/VEGF receptor I complex (WO 99/19361) which was expressed in E. coli and conjugated to coagulation-inducing recombinant human truncated tissue factor (tTF) by methods descibed by Ran et al. (Cancer Res. 58, 46464653, 1998). When tumors reached a size of approx. 200 mm^3 animals receiving compound II were treated on day 0 and on day 4 with intravenous doses of 20 μg of the scFv-tTF conjugate. Various modes of treatment are described in Table 4. Animals were sacrificed for ethical reasons when tumors of group 1 exceeded a volume of approx. 1000 mm^3. Tumor growth was determined by caliper measurement of the largest diameter and its perpendicular.

[2] = test system: A375v human melanoma xenograft (A375v/pCEP, A375v/sTie2); assay: Tumor growth in A375v human melanoma xenograft model, Example 1 (VEGF receptor kinase inhibitor and/or sTie2); assay type: in vivo, Swiss nu/nu mice; settings: s.c. A375v xenograft; kinase inhibitor 50 mg/kg daily oral; sTie2 expressed by tumor cells; untreated control 24 days
Experimental: Human melanoma cell line A375v was stably transfected to overexpress the extracellular ligand-neutralizing domain of human Tie2 receptor tyrosine kinase (sTie2; compound II) (Siemeister et al., Cancer Res. 59, 3185-3191, 1999). For control, A375v cells were stably transfected with the empty expression vector (A375v/pCEP). Swiss nu/nu mice were s.c. injected with 1×10^6 transfected A375v/sTie2 or A375v/pCEP tumor cells, respectively. Animals receiving compound I were treated for up to […] with daily oral doses of 50 mg/kg of the VEGF receptor tyrosine kinase inhibitor (4-Chlorophenyl)[4-(4-pyridylmethyl)-phthalazin-1-yl]ammonium hydrogen succinate (Wood et al., Cancer Res. 60, 2178-2189, 2000). Various modes of treatment are described in Table 1. Tumor growth was determined by caliper measurement of the largest diameter and its perpendicular.

[3] = test system: Tumors derived from A375v/pCEP cells; assay: Tumor growth in A375v xenograft, Example 6 (VEGF receptor kinase inhibitor and/or L19 scFv-tTF); assay type: in vivo, nude mice; settings: kinase inhibitor 50 mg/kg daily oral; L19 scFv-tTF single i.v. dose of 20 μg; untreated control approx. 1000 mm^3
Experimental: Tumors derived from A375v/pCEP cells were induced in nude mice as described in example 1. Animals receiving compound I were treated for up to 28 days with daily oral doses of 50 mg/kg of the VEGF receptor tyrosine kinase inhibitor (4-Chlorophenyl)[4-(4-pyridylmethyl)-phthalazin-1-yl]ammonium hydrogen succinate (Wood et al., Cancer Res. 60, 2178-2189, 2000). Compound II consists of L19 scFv-tTF fusion protein as described in example 5. When tumors reached a size of approx. 200 mm^3 animals receiving compound II were treated with a single intravenous dose of 20 μg of L19 scFv-tTF in 200 μl saline. Various modes of treatment are described in Table 6. Animals were sacrificed for ethical reasons when tumors of -group 1 exceeded a volume of approx. 1000 mm^3. Tumor growth was determined by caliper measurement of the largest diameter and its perpendicular.

[4] = test system: Tumors derived from A375v/sTie2 cells and from A375v/pCEP cells; assay: Tumor growth in A375v xenograft, Example 2 (mAb 4301-42-35 and/or sTie2); assay type: in vivo, nude mice; settings: sTie2 expressed by tumor cells; untreated control approx. 1000 mm^3
Experimental: Tumors derived from A375v/sTie2 cells and from A375v/pCEP cells were induced in nude mice as described in example 1. Animals receiving compound I were treated twice weekly over a period of time of 4 weeks with intraperitoneal doses of 200 μg of the VEGF-A-neutralizing monoclonal antibody (mAb) 4301-42-35 (Schlaeppi et al., J. Cancer Res. Clin. Oncol. 125, 336-342, 1999). Various modes of treatment are descibed in Table 2. Animals were sacrificed for ethical reasons when tumors of group 1 exceeded a volume of approx. 1000 mm^3. Tumor growth was determined by caliper measurement of the largest diameter and its perpendicular.

[5] = test system: Tumors derived from A375v/sTie2 cells and from A375v/pCEP cells; assay: Tumor growth in A375v xenograft, Example 3 (scFv-tTF conjugate and/or sTie2); assay type: in vivo, nude mice; settings: sTie2 expressed by tumor cells; untreated control approx. 1000 mm^3
Experimental: as §1, with “derived from A375v/sTie2 cells and” for “derived”, “A” for “Animals receiving compound I were treated for up to 28 days with daily oral doses of 50 mg/kg of the VEGF receptor tyrosine kinase inhibitor (4-Chlorophenyl)[4-(4-pyridylmethyl)-phthalazin-1-yl]ammonium hydrogen succinate (Wood et al., Cancer Res. 60, 2178-2189, 2000). Compound II consists of a”, “99/19361)” for “99/19361) which”, “4646-4653,” for “46464653,”, “I” for “II”, “3.” for “4.”

[6] = test system: Tumors derived from A375v/sTie2 cells and from A375v/pCEP cells; assay: Tumor growth in A375v xenograft, Example 5 (L19 scFv-tTF and/or sTie2); assay type: in vivo, nude mice; settings: sTie2 expressed by tumor cells; untreated control approx. 1000 mm^3
Source text: Tumors derived from A375v/sTie2 cells and from A375v/pCEP cells were induced in nude mice as described in example 1. A fusion protein (L19 scFv-tTF) consisting of L19 single chain antibody specifically recognizing the oncofoetal ED-B domain of fibronectin and the extracellular domain of tissue factor was expressed in E. coli as described by Nilsson et al. (Nat. Med., in press). Further, L19 scFv-tTF data have been represented by D. Neri and F. Nilsson (Meeting “Advances in the application of monoclonal antibodies in clinical oncology”, Samos, Greece, 31. May-2. June 2000). When tumors reached a size of approx. 200 mm^3 animals receiving compound I were treated with a single intravenous dose of 20 μg of L19 scFv-tTF in 200 μl saline. Various modes of treatment are described in Table 5. Animals were sacrificed for ethical reasons when tumors of group 1 exceeded a volume of approx. 1000 mm^3. Tumor growth was determined by caliper measurement of the largest diameter and its perpendicular.

Clc1ccc(Nc2nnc(Cc3ccncc3)c3ccccc23)cc1.O=C(O)CCC(=O)O [(4-Chlorophenyl)[4-(4-pyridylmethyl)-phthalazin-1-yl]ammonium hydrogen succinate]
tumor volume within 28 days [1]: approx. 550 mm^3
time for tumors to grow to a size of approx. 250 mm^2 (mean area) [2]: 31 days
tumor volume within 28 days [3]: approx. 550 mm^3

B1: sTie2: extracellular ligand-neutralizing domain of human Tie2 receptor tyrosine kinase, overexpressed by transfected A375v cells (protein, UniProt Q02763 23-748, looked up)
extracellular domain: AMDLILINSLPLVSDAETSLTCIASGWRPHEPITIGRDFEALMNQHQDPLEVTQDVTREWAKKVVWKREKASKINGAYFCEGRVRGEAIRIRTMKMRQQASFLPATLTMTVDKGDNVNISFKKVLIKEEDAVIYKNGSFIHSVPRHEVPDILEVHLPHAQPQDAGVYSARYIGGNLFTSAFTRLIVRRCEAQKWGPECNHLCTACMNNGVCHEDTGECICPPGFMGRTCEKACELHTFGRTCKERCSGQEGCKSYVFCLPDPYGCSCATGWKGLQCNEACHPGFYGPDCKLRCSCNNGEMCDRFQGCLCSPGWQGLQCEREGIQRMTPKIVDLPDHIEVNSGKFNPICKASGWPLPTNEEMTLVKPDGTVLHPKDFNHTDHFSVAIFTIHRILPPDSGVWVCSVNTVAGMVEKPFNISVKVLPKPLNAPNVIDTGHNFAVINISSEPYFGDGPIKSKKLLYKPVNHYEAWQHIQVTNEIVTLNYLEPRTEYELCVQLVRRGEGGEGHPGPVRRFTTASIGLPPPRGLNLLPKSQTTLNLTWQPIFPSSEDDFYVEVERRSVQKSDQQNIKVPGNLTSVLLNNLHPREQYVVRARVNTKAQGEWSEDLTAWTLSDILPPQPENIKISNITHSSAVISWTILDGYSISSITIRYKVQGKNEDQHVDVKIKNATITQYQLKGLEPETAYQVDIFAENNIGSSNPAFSHELVTLPESQAPADLGGGKMLL
modifications: extracellular domain
notes: extracellular ligand-neutralizing domain of human Tie2 receptor tyrosine kinase, overexpressed by transfected A375v cells
tumor volume within 28 day [4]: approx. 600 mm^2
tumor volume within 28 day [5]: approx. 600 mm^2
tumor volume within 28 day [6]: approx. 600 mm^2
time for tumors to grow to a size of approx. 250 mm^2 (mean area) [2]: 31 days
